{"source": "the nanobody polyreactivity screen of Harvey et al. (2022)"}
{"assay": "yeast display, Sf9 membrane polyspecificity reagent, FACS + sequencing; frameworks hold sequencing errors", "summary_of_the_method": "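Sorting gates, low and high (top ~1%), were placed on anti-HA fluorescence to track expression and on streptavidin fluorescence to track reagent binding. A clone's polyreactivity label is taken from the gate it came out of. The reagent was 10% biotinylated, detergent-solubilized Sf9 membrane, applied for 1 hour at 4 °C to galactose-induced yeast display cells.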"}
{"sequence": "QVQLVESGGGLVQAGGSLRLSCAASGRTFFSNAMGWYRQAPGKERELVAAISNGDNTYYADSVKGRFTISRDNAKNTVYLQMNSLKPEDTAVYYCAKDYRWVWRKYGYWGQGTQVTVSS", "polyreactivity (PSR sort gate)": "low polyreactivity"}
{"sequence": "QVQLVESGGGLVQAGGSLRLSCAASGRTFFSYTMGWYRQAPGKERELVAAISDSDGRTYYADSVKGRFTISRDNAKNTVYLQMNSLKPEDTAVYYCAAVPDKYWSRVRRYLFEHNYWGQGTQVTVSS", "polyreactivity (PSR sort gate)": "low polyreactivity"}
{"sequence": "QVQLVESGGGLVQAGGSLRLSCAASGRTFFTNALGGYRQAPGKVRELVASINSGGNTTYADSVKGRFTISRDNAKNTVYLQINSLKPEDTAVSYCAAVRSAQRWRRYYYGGQGTQVTVSS", "polyreactivity (PSR sort gate)": "low polyreactivity"}
{"sequence": "QVQLVESGGGLVQAGGSLRLSCAASGRTFFYAMGWYRQAPGKEREFVAAISWSGGSTYYADSVKGRFTISRDNAKNTVYLQMNSLKPEDTAVYYCYKVGYYGVGTSKEFDYWGQGTQVTVSS", "polyreactivity (PSR sort gate)": "high polyreactivity"}
{"sequence": "QVQLVESGGGLVQAGGSLRLSCAASGRTFFYNAMGWYRQAPGKERELVAAISKNGGNTYYADSVKGRFTISRDNAKNTVYLQMNSLKPEDTAVYYCAARQSRTGPDRNDYWGQGTQVTVSS", "polyreactivity (PSR sort gate)": "high polyreactivity"}
{"sequence": "QVQLVESGGGLVQAGGSLRLSCAASGRTFFYYAMGWYRQAPGKERELVAAISTGGSTNYADSVKGRFTISRDNAKNTVYLQMNSLKPEDTAVYYCNADYDKGVRFNFNASFGEFDYWGQGTQVTVSS", "polyreactivity (PSR sort gate)": "low polyreactivity"}
{"sequence": "QVQLVESGGGLVQAGGSLRLSCAASGRTFGDKAMGWYRQAPGKERELVAAISWSGGRTYYADSVKGRFTISRDNAKNTVYLQMNSLKPEDTAVYYCAARNNRYPLYNYWGQGTQVTVSS", "polyreactivity (PSR sort gate)": "low polyreactivity"}
{"sequence": "QVQLVESGGGLVQAGGSLRLSCAASGRTFGDNAMGWYRQAPGKERELVAAISSGDSTNYADSVKGRFTISRDNAKNTVYLQMNSLKPEDTAVYYCAAEFSHTYVYVDLDYWGQGTQVTVSS", "polyreactivity (PSR sort gate)": "low polyreactivity"}
{"sequence": "QVQLVESGGGLVQAGGSLRLSCAASGRTFGDNAMGWYRQAPWKERELVAAISRSGRTYYADSVKGRFTISRDNAKNTVYLQMNSLKPEYTAVYYCNTPYAHYVTHGLDYWGQGTQVTVSS", "polyreactivity (PSR sort gate)": "high polyreactivity"}
{"sequence": "QVQLVESGGGLVQAGGSLRLSCAASGRTFGEYTMGWYRQAPGKERELVAAISSAGRTNYADSVKGRFTISRDNAKNTVYLQMNSLKPEDTAVYYCAKTAERLHYGVYRFDYWGQGTQVTVSS", "polyreactivity (PSR sort gate)": "low polyreactivity"}
{"sequence": "QVQLVESGGGLVQAGGSLRLSCAASGRTFGFYAMGWDRQAPGKERELVAVITWSVTSTYYADSVKGRFTISRDNAKNTVYLQMNSLKPEDTAVYYCAAEYVVGASSVRDSLDYGYWGQGTQVTVSS", "polyreactivity (PSR sort gate)": "high polyreactivity"}
{"sequence": "QVQLVESGGGLVQAGGSLRLSCAASGRTFGFYAMGWYRQAPGKERELVAGINNRGSGTYYADSVKGRFTISRDNAKNTVYLLMNSLKPEDTAVYYCAAGRRAKSRTWVNIRYDYWGQGTQVTVST", "polyreactivity (PSR sort gate)": "high polyreactivity"}
{"sequence": "QVQLVESGGGLVQAGGSLRLSCAASGRTFGFYAMGWYRQAPGKERELVATISSSGGSTYYADSVKGRYTISRDNAKNTVYIQMNSLKPEDTAVYYCAKVVSGWRSHYIGDYWGQGTQVTVSS", "polyreactivity (PSR sort gate)": "low polyreactivity"}
{"sequence": "QVQLVESGGGLVQAGGSLRLSCAASGRTFGGNAIGWYRQAPGKERELVAAISSGARTNYADSVKGRFTISRDNAKNTVYLQMNSLKPEDNAVYYCAAGYPYSYRDYYYWVQGTQVTVSS", "polyreactivity (PSR sort gate)": "high polyreactivity"}
{"sequence": "QVQLVESGGGLVQAGGSLRLSCAASGRTFGGNAMGWYRQAPGKERELVAAISLSGGTTYYADSVKGRFTISRDNAKNTVYLQMNSLKPEDTAVYYCAADTAGYYDEDKDGDYWGQGTQVTVSS", "polyreactivity (PSR sort gate)": "low polyreactivity"}
{"sequence": "QVQLVESGGGLVQAGGSLRLSCAASGRTFGGYAMGWYRQAPGKERELVAAITWRGGRTFYADSVKGRFTISRDNAKNTVYLQMNSLKPEDTAVYYCNVVKYGPRYDYWGQGTQVTVSS", "polyreactivity (PSR sort gate)": "high polyreactivity"}
{"sequence": "QVQLVESGGGLVQAGGSLRLSCAASGRTFGGYTMGWYRQAPGKERELVAAINWSGTTYYADSVKGRFTISRDNAKNTVYLQMNSLIPEDTAVYYCAASLVSYYGLARDSVDYWGQGTQVNVSS", "polyreactivity (PSR sort gate)": "low polyreactivity"}
{"sequence": "QVQLVESGGGLVQAGGSLRLSCAASGRTFGHNAMGWYRQAPGKERELVAAISASGSNTYYADSVKGRFTISRDNAKNTVYLQMNSLKPEDTAVYYCAKQVYRPGQQSRYDYWGQGTQVTVSS", "polyreactivity (PSR sort gate)": "low polyreactivity"}
{"sequence": "QVQLVESGGGLVQAGGSLRLSCAASGRTFGIYAMGWYRQAPGKERELVAAITGRGGSTHYADSVKGRFTISRDNAKNTVYLQMNSLKPEDTAVYYCAADYRYNRGITSNKDYDYWGQGTQVTVSS", "polyreactivity (PSR sort gate)": "low polyreactivity"}
{"sequence": "QVQLVESGGGLVQAGGSLRLSCAASGRTFGIYAMGWYRQAPGKERELVATISWRGGSTYYADSVKGRFTISRDNAKNSVYLQMNSLKPEDTAVYYCAAGYYPYWGQGTQVTVSS", "polyreactivity (PSR sort gate)": "low polyreactivity"}
{"sequence": "QVQLVESGGGLVQAGGSLRLSCAASGRTFGIYAMGWYRQAPGKERELVATISWRGGSTYYADSVKGRFTISRDNAKNTVYLQMNSLKPEDTAVSYCAAGYYPYWGQGTQVTVSS", "polyreactivity (PSR sort gate)": "low polyreactivity"}
{"sequence": "QVQLVESGGGLVQAGGSLRLSCAASGRTFGKNAMGWYRQAPGKEREFVAAITSRGGSTYYADSVKGRFTISRDYAKNTVYLQMNSLKPEDTAVYYCNREYKRPSQRTEHYYWGQGSQVTVSS", "polyreactivity (PSR sort gate)": "low polyreactivity"}
{"sequence": "QVQLVESGGGLVQAGGSLRLSCAASGRTFGKYAMGWYRQAPGKERELVATITRTARTNYADSVKGRFTNSRDNAKNTVYFQMNSLKPEDTAVYYCAKGWPAIYGTYDYWGQGTQVTVSS", "polyreactivity (PSR sort gate)": "high polyreactivity"}
{"sequence": "QVQLVESGGGLVQAGGSLRLSCAASGRTFGLNAMGWYRQAPGKERELVAAITSGGSTYYADSVKGRFTITRDNAKTTVYLQMNSLKPEDTAVYYCAAAYFDFWGWLHDYWGQGTQVTVSS", "polyreactivity (PSR sort gate)": "low polyreactivity"}
{"sequence": "QVQLVESGGGLVQAGGSLRLSCAASGRTFGNYAMGWYRQAPAKESELVAAITGRGGSTHYADSVKGRFTISRDNAKYTVYLQMNSLKPEDTAVYDCAADYRYNRGITSNKDYDYWGQGTQVTVSS", "polyreactivity (PSR sort gate)": "low polyreactivity"}
{"sequence": "QVQLVESGGGLVQAGGSLRLSCAASGRTFGNYAMGWYRQAPGKERELVAAITSSGGTTYYADSVKGRFTISRDYAKNTVYLQMNSLKPEDTAVYYCAARHYPRNSWGYDYWGQGTQVNVSS", "polyreactivity (PSR sort gate)": "high polyreactivity"}
{"sequence": "QVQLVESGGGLVQAGGSLRLSCAASGRTFGPYAMGWYRQAPGKERELVAAISRSGGRTYYADSVKGRFSISRDNAKNTVYLQMNSLKPEETAVYYCNALYLSTRSGDYWGQGSQVTVSS", "polyreactivity (PSR sort gate)": "high polyreactivity"}
{"sequence": "QVQLVESGGGLVQAGGSLRLSCAASGRTFGPYARGWYIQAPGKERELVAAISWIGTSTYYADSVKGRFTISRDNAKNTVYLQMNSLKPEDTAVYYCAALEKNYTTKFYYWGQVTQVTVSS", "polyreactivity (PSR sort gate)": "high polyreactivity"}
{"sequence": "QVQLVESGGGLVQAGGSLRLSCAASGRTFGPYVMGWYRQAPGKERELVAAISFSGGSTYYADSVKGRFTISRDNAKNTVYLQMNSLKPEDTAVYYCAAPATRPYYTGYDYWGQGTQVTVSS", "polyreactivity (PSR sort gate)": "high polyreactivity"}
{"sequence": "QVQLVESGGGLVQAGGSLRLSCAASGRTFGPYVMGWYSQAPGKDRELVAVIRWSGVSTYYADSVKGRFTISRDKAKNTVYLLRNSMTPEDTAVDYCNAVRPYRLASYDYWGQGTQVTVSS", "polyreactivity (PSR sort gate)": "high polyreactivity"}
{"sequence": "QVQLVESGGGLVQAGGSLRLSCAASGRTFGQNAMGWYRQAPGKERELVATITLNGGNTYYADSVKGRFTISRDNAKNTVYLQMNSLKPEDTAVYYCNAVPSWYRYRPPRFDYWGQGTQVTVSS", "polyreactivity (PSR sort gate)": "low polyreactivity"}
{"sequence": "QVQLVESGGGLVQAGGSLRLSCAASGRTFGQYAMGWYRQAPGKEREFVAGITWSGGSTSYADSVKGRFTISRDNAKNTVYLQMNSLKPEDTAVYYCIAVYWKPSLEYGYWGQGTQVTVSS", "polyreactivity (PSR sort gate)": "high polyreactivity"}
{"sequence": "QVQLVESGGGLVQAGGSLRLSCAASGRTFGQYAMGWYRQAPGKERELVAAISTRGGSTYYADSVKGRFTISRDNAKNTVYLQLNSLKPEDTAVYYCAARQGWFAGYEYWGQGTQVTVSS", "polyreactivity (PSR sort gate)": "low polyreactivity"}
{"sequence": "QVQLVESGGGLVQAGGSLRLSCAASGRTFGQYTMGWYRQAPGKERELVAGITRSGSRTYYADSVKGRFTISRDNAKNTVYLQMNSLKPEDTAVYYCAARVYKSQGGLPEYDYWGQGTQVTVSS", "polyreactivity (PSR sort gate)": "high polyreactivity"}
{"sequence": "QVQLVESGGGLVQAGGSLRLSCAASGRTFGQYVMGWYRQAPGKERELVAAIRSGGSTYYADSVKGRFTISRDNAKNTVYLQMNSLKPEDTAVYYCAKETYYGTDNFGQVGGEMDYWGQGTQVTVSS", "polyreactivity (PSR sort gate)": "low polyreactivity"}
{"sequence": "QVQLVESGGGLVQAGGSLRLSCAASGRTFGRNAMGWYRPAPGKERELVATITRRGGSTYYADSVKGRFTISRDNAKNTVYLQMYSLKPEDTAVYYCNAGIWLGSFRQRFYYWGQGTQVTVSS", "polyreactivity (PSR sort gate)": "high polyreactivity"}
{"sequence": "QVQLVESGGGLVQAGGSLRLSCAASGRTFGRNAMGWYRQAPGKERELVAAINSGGSTKYADSVKGRFTISRDNAKNTVYLQMNSLKPEDTAVYYCARRGGFSYYYWGQGTQVTVSS", "polyreactivity (PSR sort gate)": "high polyreactivity"}
{"sequence": "QVQLVESGGGLVQAGGSLRLSCAASGRTFGRNTMGWYRQAPGKERELVAAIDWSGGSTYYADSVKGRFTISRDNAKNTVYLQMNSLKPEDTAVYYCAAASRYPVNYYYWGQGTQVTVSS", "polyreactivity (PSR sort gate)": "high polyreactivity"}
{"sequence": "QVQLVESGGGLVQAGGSLRLSCAASGRTFGRNTMGWYRQAPGKERELVASITRSSGSTYYADSVKGRFTISRDNAKNTVYLQMNSLKPEDTAVSYCNARATSGGDYWGQGTQVTVSS", "polyreactivity (PSR sort gate)": "high polyreactivity"}
{"sequence": "QVQLVESGGGLVQAGGSLRLSCAASGRTFGRYAKGWYRQAPGKERELVAAISWSGGSTYYADSVKGRFTISRDNAKNTVYLQMNSLKPEDTAVYYCAAVTTDGVYAFDYWGQGTQVTVSS", "polyreactivity (PSR sort gate)": "low polyreactivity"}
{"sequence": "QVQLVESGGGLVQAGGSLRLSCAASGRTFGRYAMGWYRQAHGKERELVAAISWSGGSTYYADSVKGRFTISRDNAKNTVYLQMNNLKPEDTAVYYCAAVTTDGVYAFDYWGQGTQVTVSS", "polyreactivity (PSR sort gate)": "low polyreactivity"}
{"sequence": "QVQLVESGGGLVQAGGSLRLSCAASGRTFGRYAMGWYRQAPGKERELVAAITRSGSSTYYADSVKGRFTISRDNAKNTVYLQMNSLKPEDTAVYYCAALYGPFYSTGEYWGQGTQVTVSS", "polyreactivity (PSR sort gate)": "high polyreactivity"}
{"sequence": "QVQLVESGGGLVQAGGSLRLSCAASGRTFGRYAMGWYRQAPGKERELVAAITWSGGSTYYADSVKGRFTISRDYAKNTVYLQMNSLKPEDTAVYYCAAARVYFGDLFVVYYFIQYDYWGQGTQVTVSS", "polyreactivity (PSR sort gate)": "low polyreactivity"}
